These results are taken from patent US20210070875A1 (SHANGHAI PHARMAEXPLORER, published 2021).

The target in the assay is T1, human C5aR (human, UniProt P21730 1-350).
T1 chain: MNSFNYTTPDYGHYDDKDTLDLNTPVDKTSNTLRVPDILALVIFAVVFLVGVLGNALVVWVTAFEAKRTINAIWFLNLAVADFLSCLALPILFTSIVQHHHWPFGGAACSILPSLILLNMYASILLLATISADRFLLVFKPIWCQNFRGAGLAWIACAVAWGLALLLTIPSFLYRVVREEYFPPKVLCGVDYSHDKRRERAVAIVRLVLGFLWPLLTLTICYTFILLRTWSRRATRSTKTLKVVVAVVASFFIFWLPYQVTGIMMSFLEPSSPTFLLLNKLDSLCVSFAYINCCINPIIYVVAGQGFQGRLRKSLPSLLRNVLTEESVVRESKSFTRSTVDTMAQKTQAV
The assay can be described thus: cell-based or functional assay.
Also: test concentration or dose not given here.

B1: 8B5D1A9 (antibody, V domains shown)
VH: QVQLKQSGAELVKPGASVKISCKTSGYIFTDYYINWMKQRPGQGLEWIGKIGPGSGTTFYNEKFKGKATLTADKSSTTLYMQLSSLTAEDSAVYFCTRRGYYSSSYFYWGQGTTLTVSS
VL: DIVMTQSPSSLSVSAGEKVIMSCKSSQSLLNSERQKNYLAWYQQKPGQSPKLLIYGASTRESGVPDRFTGSGSGTDFTLTISSVQAEDLAVYYCLNDHSYPLTFGAGTKLELK
For the molecule B1, the “C5a-induced human neutrophil migration, Celltiter-Glo fluorescence intensity value, Parallel sample 1” value is 655 fluorescence intensity; the “C5a-induced human neutrophil migration, Celltiter-Glo fluorescence intensity value, Parallel sample 2” value stood at 713 fluorescence intensity; the “C5a-induced human neutrophil migration, Celltiter-Glo fluorescence intensity value, Parallel sample 3” value is 706 fluorescence intensity; the “C5a-induced human neutrophil migration, Celltiter-Glo fluorescence intensity value, Parallel sample 4” value was 750 fluorescence intensity.

B2: 2A12B2B2 (antibody, V domains shown)
VH: QVQLQQPGADLVKPGASVKMSCKASGYILTTYWITWVKQRPGQGLEWIGDIHPGSGSTKYNEKFKSKATLTVDTSSSTAYMQLTRLSSEDSAVYYCARRDYWGQGTTLTVSS
VL: DIQMTQTTSSLSASLGDKVTISCRASQDISNYLSWYQQKPDGTVKLLIYWISRLHSGVPSRFSGSGSGTDFSLTISNLEQEDIATYFCQQGNSLPPTFGGGTKLEVK
On to B2, for which the “C5a-induced human neutrophil migration, Celltiter-Glo fluorescence intensity value, Parallel sample 1” value is 670 fluorescence intensity; the “C5a-induced human neutrophil migration, Celltiter-Glo fluorescence intensity value, Parallel sample 2” value turned out to be 597 fluorescence intensity; the “C5a-induced human neutrophil migration, Celltiter-Glo fluorescence intensity value, Parallel sample 3” value worked out at 233 fluorescence intensity; the “C5a-induced human neutrophil migration, Celltiter-Glo fluorescence intensity value, Parallel sample 4” value amounted to 204 fluorescence intensity.

B3: 46H2A11C7 (antibody, V domains shown)
VH: QVQLKQSGAELVKPGASVKISCRASGYTFTDYFINWVKQRPGQGLEWIGKIGPGSGNIYQNEKFKDKATLTTDTSSSTAYMQLSSLTSEDSAVYFCARWGIQRGWGQGTTLTVSS
VL: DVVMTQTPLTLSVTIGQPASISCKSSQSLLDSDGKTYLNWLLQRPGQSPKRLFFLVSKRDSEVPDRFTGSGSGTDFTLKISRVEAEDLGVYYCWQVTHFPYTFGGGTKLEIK
For B3, the “C5a-induced human neutrophil migration, Celltiter-Glo fluorescence intensity value, Parallel sample 1” value worked out at 1460 fluorescence intensity; the “C5a-induced human neutrophil migration, Celltiter-Glo fluorescence intensity value, Parallel sample 2” value is 1510 fluorescence intensity; the “C5a-induced human neutrophil migration, Celltiter-Glo fluorescence intensity value, Parallel sample 3” value is 1930 fluorescence intensity; the “C5a-induced human neutrophil migration, Celltiter-Glo fluorescence intensity value, Parallel sample 4” value was 2040 fluorescence intensity.

B4: 42B5G7D1 (antibody, V domains shown)
VH: QVQLQQSGPELVKPGASVKISCKASGYVFSNSWMNWVKQRPGKGLEWIGRIDPGDGDTKYNGKFKGKATLTADKSSSTAYMQLSSLTSEDSAVYFCVRFYYGSNYVGYYFDYWGQGTTLTVSS
VL: DVLMTQTPLSLPVSLGDQASISCRSSQSIVQSNGNTYLEWYLQKPGQSPKLLIYKVSNRFSGVPDRFSGSGSGTDFTLKISRVEAEDLGVYYCFQGSLVPPTFGGGTKLEIK
On to B4, for which the “C5a-induced human neutrophil migration, Celltiter-Glo fluorescence intensity value, Parallel sample 1” value came out at 1200 fluorescence intensity; the “C5a-induced human neutrophil migration, Celltiter-Glo fluorescence intensity value, Parallel sample 2” value came to 1480 fluorescence intensity; the “C5a-induced human neutrophil migration, Celltiter-Glo fluorescence intensity value, Parallel sample 3” value turned out to be 298 fluorescence intensity; the “C5a-induced human neutrophil migration, Celltiter-Glo fluorescence intensity value, Parallel sample 4” value amounted to 335 fluorescence intensity.

B5: 5F8E2C11 (antibody, V domains shown)
VH: QVQLRQSGPGLVQPSQSLSITCTVSGFSLTSYGVHWVRQSPGKGLEWLGVIWSGGSTDYNAAFISRLSISKDYSKSQIFLTMNSLQTDDTAIYYCARNSRLGNCFDYWGQGTTLTVSS
VL: DIVMSQSPSSLAVSAGEKVTMSCKSSQSLLNSRTRKNYLAWYQQKPGQSPKLLIYWASTRESGVPDRFTGSGSGTDFTLTISSVQAEDLAVYYCKQSYNLPAFGGGTKLEIK
Turning to B5, the “C5a-induced human neutrophil migration, Celltiter-Glo fluorescence intensity value, Parallel sample 1” value was determined as 575 fluorescence intensity; the “C5a-induced human neutrophil migration, Celltiter-Glo fluorescence intensity value, Parallel sample 2” value was determined as 429 fluorescence intensity; the “C5a-induced human neutrophil migration, Celltiter-Glo fluorescence intensity value, Parallel sample 3” value came to 400 fluorescence intensity; the “C5a-induced human neutrophil migration, Celltiter-Glo fluorescence intensity value, Parallel sample 4” value is 313 fluorescence intensity.

B6: 9D5A12G7 (antibody, V domains shown)
VH: QVQLKQSGPGLVQPSQSLSITCTVSGFSLTSYGVHWVRQSPGKGLEWLGVIWSGGSTDYNAAFISRLSISKDNSKSQVFFKMNSLQADDTAIYYCARNGLLGNAMDYWGQGTSVTVSS
VL: DIVMSQSPSSLAVSAGEKVTMSCKSSQSLLSSRTRKNYLAWYQQKPGQSPKLLIYWASTRESGVPDRFTGSGSGTDFTLTISSVQTEDLAVYYCKQSYNLLTFGAGTTLELK
For B6, the “C5a-induced human neutrophil migration, Celltiter-Glo fluorescence intensity value, Parallel sample 1” value is 175 fluorescence intensity; the “C5a-induced human neutrophil migration, Celltiter-Glo fluorescence intensity value, Parallel sample 2” value turned out to be 211 fluorescence intensity; the “C5a-induced human neutrophil migration, Celltiter-Glo fluorescence intensity value, Parallel sample 3” value is 575 fluorescence intensity; the “C5a-induced human neutrophil migration, Celltiter-Glo fluorescence intensity value, Parallel sample 4” value was found to be 611 fluorescence intensity.

B7: 43E8F5B6 (antibody, V domains shown)
VH: EVQLQQSGPELVKPGASVKISCKASGYTFTDYYMSWMKQSHGKSLEWIGDINPNNGDNIYNQKFKGKATLTVDRSSSTAYMDLRSLTSEDSAVYYCARWYYYVSSFSYWYFDVWGTGTTVTVSS
VL: EIVLTQSPTTMAASPGEKITITCSATSSINSNYLHWYQQKPGFSPKLLIYRTSNLASGVPARFSGSGSGTSYSLTIGTMEAEDVATYYCQQGRTIPRTFGSGTKLEIK
For the molecule B7, the “C5a-induced human neutrophil migration, Celltiter-Glo fluorescence intensity value, Parallel sample 1” value turned out to be 844 fluorescence intensity; the “C5a-induced human neutrophil migration, Celltiter-Glo fluorescence intensity value, Parallel sample 2” value was determined as 808 fluorescence intensity; the “C5a-induced human neutrophil migration, Celltiter-Glo fluorescence intensity value, Parallel sample 3” value was 706 fluorescence intensity; the “C5a-induced human neutrophil migration, Celltiter-Glo fluorescence intensity value, Parallel sample 4” value stood at 757 fluorescence intensity.
